Source: the RNAGym collection of RNA variant scans (doi:10.1073/pnas.2313332121)

B1: TPR t1 (parent)
chain: GACCAAUCUGCCCUCAGAGCUCGAGAACAUCUUCGGAUGCAGAGGAGGCAGGCUUCGGUGGCGCGAUAGCGCCAACGUCCUCAACCUCCAAUGCAUCCCACCACAUGAUGAUGCCUGAAGAGCCUUGGUUUUUUG

Variants of: B1
Assay: polymerase ribozyme fitness, log enrichment relative to wild type (log ratio); higher = more active; in vitro selection for triplet polymerase activity
Method in brief: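 Fitness measures genotype enrichment against wild-type enrichment on a logarithmic scale, with inverse-variance-weighted averaging of replicates. The logarithm is base 2, and genotypes were kept only with ≥10 input reads and ≥1 read per output in Illumina sequencing. The sequenced libraries came from one triplicate in vitro selection round, including frozen incubation at −7 °C, of PCR-built, transcribed mutant libraries of each subunit of a heterodimeric triplet polymerase ribozyme.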

Variant | polymerase ribozyme fitness (log ratio)
C3U G69C C88G U96G | -2.75
C3U G48C G61U | -0.989
C3U C12A C79G | -2.97
A2U G120A | -0.642
C3A G39U | -2.46
C3A A105G | -4.78
A2G U14C C70U | -2.68
A2U A37U U54A G69U U78G A105G | -3.36
A2G C114A C124A | -0.647
C3U U78C A105U G120C | -1.99
C3A G61A | -1.23
C3A G71C C79G A119G C123A | -1.16
A2U C56A C64U G120C | -3.86
A2U C40A | -3.29
A2G G57A C104A | -3.56
C4A C11G | -1.18
C3A G57C G71U A90U C114A U132C | -2.98
C3U U55C G120C | -1.02
A2U A5C C13U G48A G69A | -5.8
A2G C40U U78A C86U G117A | -3.78
A2G A5G U7G U21G A43C G69U C88A C101U U129A | -3.72
A2U C72G C101G C124A | -2.28
A2G G44C C62A C97U C115U G135A | -5.32
C3U C11U | -0.785

Variant | polymerase ribozyme fitness (log ratio)
C3A A16U C73G | -3.81
A2U C13A | -3.76
C3A G23C C40A A84C G110C | -5.53
C3U A37U G61A G117A | -1.3
C3G U9G A43G G61A C114A U131A | -3
C3U C80G | -5.98
A2U A5C C62A G93C | -5.08
A2G A91U | -1.93
C3A G52U C64U | -2.19
A2G G39U | -1.18
A2U C4A A43G G47C A68G G113A C124U | -6.42
A2U G47A C123A | -2.56
C3G | -1.58
C3A | -1.22
C3U | -0.284
C3A G60A | -1.52
C3A G60U | -1.28
A2U G23C G39A A50U G61C A91C G93C A111U | -6
C3G C124A | -0.505
C3G U96C G113U | -6.42
C3A U9C C11A C49G U109A U126G | -6.11
A2G C79A | -0.844
C3U C12U G110A | -0.836
A2G A50C A75G G113U | -3.77

Variant | polymerase ribozyme fitness (log ratio)
C3A U7G U32C G60U G93C A111C | -2.96
C3U G51C G58A G63U C115G | -5.47
C3A C8A C40G G61U A100C | -2.95
C3A C97A C114U | -5.53
C3U C94U U106C | -0.635
A2G C13G C123G | 1.11
C3U A29U | -1.77
C3A G44A A46U C53G C115U | -6.56
C3U C11A C13G A74G | -2.98
C3A G61U C115A | -1.78
A2G U78A G128A | -2.62
C3A C40G | -2.2
A2G G52A C99U | -3.53
A2U A6G U92C A121C | -0.755
A2G C64U C89G U112A | -1.2
C3A C79A G120U G128A | -3.06
A2G A5G C20A A46C U112G G122U U129C | -5.3
C3A C62U A105G | -4.05
C3U C102U G117U | -4.61
C3A C11U C99U | -4.11
A2U G65A C80G A84G C115U G117A G127U | -5.92
C3A A5U G36C G47C A75U G77A A105G U106A C123U U130C | -2.36
A2G C115A | -0.495
A2U U9G | -1.32

Variant | polymerase ribozyme fitness (log ratio)
C3G C34G C76G A91C U109G | -6.42
C3U C70U G110A | -2.71
C3U G39C G44A G77U U78A A119G | -1.19
C3U C40G C115A | -1.95
A2G G52U A91U A95C | -3.47
C3A A83C C97U G110A | -3.93
C3U C13U C85U U87A A95C | -2.29
C3A G110C U112A G117A U132C | -6.59
C3G C8G C73U C101G G120U | -0.772
C3A C12G A26U U30G G65C A121C U130C | -6.48
A2G A43G | -2.05
C3A C13U C34A G58C G135U | -4.09
C3U G10U A41C C115U U126G | -6.14
A2G C4G G47A G48A C123A | -3.22
C3U U81G | -4.04
C3A C4G G10A G61A C123G | 0.689
C3A U7C G113C | -2.78
A2G C4G C8G G47U U54C | -3.05
C3A C12U U54A G69U G77C | -3.81
C3U G71U U125G | -1.58
C3U C8G G45U U54A C72U U87C U130A | -1.62
A2U C11A G51A A66G G69U C98U | -4.43
A2U U7A A46C G48A C82A G127C | -4.28
C3U G61A U78G U112G | -0.547

Variant | polymerase ribozyme fitness (log ratio)
C3G G10C C34G G42U G69U C82G C102A U109A | -5.83
C3U A29C G61U | -2.81
C3U C11U C13G U116C | -4.66
C3A A74C | -2.99
C3U C12A G60A | -1.22
A2U C98U | -3.18
C3U A50C C73A C85U G120U | -1.28
A2G C8G A121U U129G | 0.138
A2U U59C C62G C94U C123A U125G | -6.19
C3U C11A G47A C72A G110U | -2.89
C3U A16U | -2.53
C3G C115A | -2.96
C3G C72U | -2.37
C3G C72A | -1.64
C3U C40U G117U | -3.25
C3U U9C C49A C70U C76A C115A | -0.878
C3A C12G C56G C123U | -0.749
C3A A41U C70A A91C U112G U125G G127U | -4.59
C3G G48C C89U U132C | -1.66
C3U C12G G71U | -0.231
A2U C22G U33C C34A | -5.51
A2G C12U G47A G63U G113U | -4.51
A2U A5C | -2.09
C3U C8G G48U G93U | -0.42

Variant | polymerase ribozyme fitness (log ratio)
C3A A111C G128U U129A | -1.89
C3U G47U A105G | -4.56
A2G U9G U21C G128A | -4.35
C3G G39A G51U G69U C79A U130G | -3
A2U U131G | -2.07
A2G C12U A29U G69C A75G C94A C123U | -4.95
C3U G47A G61A A84C | -0.617
C3A G39A A68G G128U | -4.5
C3U A90G | -0.86
C3U A37U C40A G60U | -1.23
C3A G10U G69U C72U C101U | -1.82
A2C U87G | -1.65
C3U U87G | -0.293
A2C G110C | -6.21
A2C G128U | -2.55
C3A C40A G47A G60A A75U C86U C97U C123A U132A | -1.07
A2U C13U A41G A43U C49U U92C G93C C115U U131G U132A | -4.38
A2G A18G G19C A83C U92A C114A G128C | -3.26
C3U C12G C85U | -1.47
A2G U59G G122A U129C | -0.941
A2U G63A A84U C86U | -3.92
A2U A50G C73U U78A | -3.42
C3U C56G A83U C85A | -3.16
C3A A5G C12A G63U A68G C115G G122A U130G | -6.94

Variant | polymerase ribozyme fitness (log ratio)
A2U C62U | -2.96
C3G C12G A83C U106A | -2.23
A2G C28U G93C C124G U133G | -2.71
C3U A24G G47C | -3.61
C3U G48A A68G | -3.84
C3G U9A C85A | -2.07
A2G C34A U55A C70G U112C | -5.23
A2C G71A C115A C123U | -2.71
A2U C72A | -2.16
A2U C13U C72G C114U | -3.41
C3A G48U | -2.67
A2U C11U G57U A91U | -4.18
C3A C28U G57A G69U C82U | -3.79
C3A U9G G44A C62A C88G G113A C123G | -4.87
A2U G63A C86A | -4.44
A2G G93A | -0.719
C3U C53A C72G | -1.22
C4A C11G G44C U54C | -1.66
C3A C22G A37G A111G | -4.63
C3U C20U | -1.7
C3A A5C C115A | 1.15
C3U C20A A46G C72G G113U | -0.27
A2U C79U C104A | -4.26
